The source of these data is publication PMC3829167, “Directed Evolution of an Angiopoietin-2 Ligand Trap by Somatic Hypermutation and Cell Surface Display*” (The Journal of Biological Chemistry, 2013).

One test concerns the target T1, human angiopoietin 1 (human, UniProt Q15389 16-498).
T1 construct: human angiopoietin 1 (Ang1), recombinant protein from R&D Systems; in the other experiments it was detected with anti-Ang1 or immobilised; also called Ang1; source: bought: R&D Systems
T1 sequence (looked up): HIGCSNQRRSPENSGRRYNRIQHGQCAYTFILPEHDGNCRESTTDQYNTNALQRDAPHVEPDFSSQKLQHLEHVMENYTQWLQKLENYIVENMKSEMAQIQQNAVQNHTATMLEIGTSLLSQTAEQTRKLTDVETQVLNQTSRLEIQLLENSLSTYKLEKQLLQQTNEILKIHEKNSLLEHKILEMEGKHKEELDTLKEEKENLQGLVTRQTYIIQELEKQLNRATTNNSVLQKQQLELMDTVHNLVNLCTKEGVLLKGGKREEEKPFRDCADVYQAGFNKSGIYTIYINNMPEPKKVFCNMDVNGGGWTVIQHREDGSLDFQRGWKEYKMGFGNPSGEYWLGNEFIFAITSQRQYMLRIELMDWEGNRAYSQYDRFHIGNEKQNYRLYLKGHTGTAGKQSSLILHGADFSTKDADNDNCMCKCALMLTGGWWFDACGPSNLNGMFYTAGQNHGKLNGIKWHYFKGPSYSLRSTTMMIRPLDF
Kind of test: ELISA; 5 μg/ml Ang1 or Ang2 immobilised in 96-well plates; blocked with TBS, 1 mg/ml BSA, 0.1% Triton-X 100; ectodomain-Fc fusion protein bound for 1 h at different concentrations, detected with anti-Tie2 ectodomain antibodies; saturation binding curves fitted by nonlinear regression. The conditions noted are these: both partners purified. On the technique in general: ELISA stands for enzyme-linked immunosorbent assay.

A further test addresses T2, human angiopoietin 2 (human, UniProt O15123 19-496).
T2 construct: human angiopoietin 2 (Ang2), recombinant protein from R&D Systems; also called Ang2; source: bought: R&D Systems
T2 sequence (looked up): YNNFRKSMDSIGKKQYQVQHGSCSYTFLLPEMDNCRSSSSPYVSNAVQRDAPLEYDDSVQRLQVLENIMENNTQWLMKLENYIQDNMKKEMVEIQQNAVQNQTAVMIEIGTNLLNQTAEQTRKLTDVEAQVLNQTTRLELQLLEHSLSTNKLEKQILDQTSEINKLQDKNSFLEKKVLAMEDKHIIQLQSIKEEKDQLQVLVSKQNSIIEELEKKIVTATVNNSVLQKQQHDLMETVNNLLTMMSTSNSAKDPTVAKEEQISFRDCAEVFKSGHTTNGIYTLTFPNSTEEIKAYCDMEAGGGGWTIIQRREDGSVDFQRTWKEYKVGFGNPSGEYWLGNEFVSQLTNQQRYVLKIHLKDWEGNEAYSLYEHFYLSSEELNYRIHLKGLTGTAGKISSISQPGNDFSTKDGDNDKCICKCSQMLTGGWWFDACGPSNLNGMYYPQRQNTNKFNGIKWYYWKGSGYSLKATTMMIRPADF
The description is as above. As to conditions: both partners purified.

B1: soluble Tie2 ectodomain (1-442)-Fc fusion protein with F161I substitution (Fc fusion, human, UniProt Q02763 23-442, looked up)
chain: AMDLILINSLPLVSDAETSLTCIASGWRPHEPITIGRDFEALMNQHQDPLEVTQDVTREWAKKVVWKREKASKINGAYFCEGRVRGEAIRIRTMKMRQQASFLPATLTMTVDKGDNVNISFKKVLIKEEDAVIYKNGSIIHSVPRHEVPDILEVHLPHAQPQDAGVYSARYIGGNLFTSAFTRLIVRRCEAQKWGPECNHLCTACMNNGVCHEDTGECICPPGFMGRTCEKACELHTFGRTCKERCSGQEGCKSYVFCLPDPYGCSCATGWKGLQCNEACHPGFYGPDCKLRCSCNNGEMCDRFQGCLCSPGWQGLQCEREGIQRMTPKIVDLPDHIEVNSGKFNPICKASGWPLPTNEEMTLVKPDGTVLHPKDFNHTDHFSVAIFTIHRILPPDSGVWVCSVNTVAGMVEKPFNISVK
notes: signal peptide in the construct; human Tie2 ectodomain, residues 1-442, F161I; also called F/I; F161I ectodomain; source: HEK293 cells, transfected, secreted, purified (nickel-nitrilotriacetic acid chromatography); not shown: Fc (human), C-terminal, kept
As to B1, the “Max binding (% of WT)” value with human angiopoietin 1 is 97.8 % of WT; with human angiopoietin 2 it was 90.5 % of WT.

B2: soluble evolved (R3) Tie2 ectodomain (1-442)-Fc fusion protein (Fc fusion, human, UniProt Q02763 23-442, looked up)
chain: AMDLILINSLPLVSDAETSLTCIASGWRPHEPITIGRDFEALMNQHQDPLEVTQDVTREWAKKVVWKREKASKINGAYFCEGRVRGEAIRIRTMKMRQQASFLPATLTMTVDKGDNVNISFKKVLIKEEDAVIYKNGSIIHSVPEVPDILEVHLPHAQPQDAGVYSARYIGGNLFTSAFTRLIVRRCEAQKWGPECNHLCTACMNNGVCHEDTGECICPPGFMGRTCEKACELHTFGRTCKERCSGQEGCKSYVFCLPDPYGCSCATGWKGLQCNEACHPGFYGPDCKLRCSCNNGEMCDRFQGCLCSPGWQGLQCEREGIQRMTPKIVDLPDHIEVNSGKFNPICKASGWPLPTNEEMTLVKPDGTVLHPKDFNHTDHFSVAIFTIHRILPPDSGVWVCSVNTVAGMVEKPFNISVK
notes: signal peptide in the construct; human Tie2 ectodomain, residues 1-442, with F161I and the deletion of Arg-167/His-168 introduced by site-directed mutagenesis; The changes were found by directed evolution and put into m3 by site-directed mutagenesis; also called evolved ectodomain; R3 ectodomain; source: HEK293 cells, transfected, secreted, purified (nickel-nitrilotriacetic acid chromatography); …
For the molecule B2, the “Max binding (% of WT)” value is 3 % of WT with human angiopoietin 1 and 59.4 % of WT with human angiopoietin 2.

B3: soluble Tie2 ectodomain (1-442)-Fc fusion protein with the double Arg-167/His-168 deletion (Fc fusion, human, UniProt Q02763 23-442, looked up)
chain: AMDLILINSLPLVSDAETSLTCIASGWRPHEPITIGRDFEALMNQHQDPLEVTQDVTREWAKKVVWKREKASKINGAYFCEGRVRGEAIRIRTMKMRQQASFLPATLTMTVDKGDNVNISFKKVLIKEEDAVIYKNGSFIHSVPEVPDILEVHLPHAQPQDAGVYSARYIGGNLFTSAFTRLIVRRCEAQKWGPECNHLCTACMNNGVCHEDTGECICPPGFMGRTCEKACELHTFGRTCKERCSGQEGCKSYVFCLPDPYGCSCATGWKGLQCNEACHPGFYGPDCKLRCSCNNGEMCDRFQGCLCSPGWQGLQCEREGIQRMTPKIVDLPDHIEVNSGKFNPICKASGWPLPTNEEMTLVKPDGTVLHPKDFNHTDHFSVAIFTIHRILPPDSGVWVCSVNTVAGMVEKPFNISVK
notes: signal peptide in the construct; human Tie2 ectodomain, residues 1-442, Arg-167 and His-168 deleted; also called ΔRH; ΔArg-167/His-168; source: HEK293 cells, transfected, secreted, purified (nickel-nitrilotriacetic acid chromatography); not shown: Fc (human), C-terminal, kept
Consider B3, for which the “Max binding (% of WT)” value is 0.29 % of WT in the test with human angiopoietin 1 and 0.58 % of WT with human angiopoietin 2.
